# Measured values as given in patent CN115368463A (HEFEI TIANGANG IMMUNOLOGY PHARMACEUTICAL CO LTD, dated 2022).
# T1: CD27蛋白 (Homo sapiens (Human), UniProt P26842 20-260)
# T1 construct: also called CHO-K1-CD27细胞; Jurkat-NFAT-lucia-CD27细胞
# T1 sequence: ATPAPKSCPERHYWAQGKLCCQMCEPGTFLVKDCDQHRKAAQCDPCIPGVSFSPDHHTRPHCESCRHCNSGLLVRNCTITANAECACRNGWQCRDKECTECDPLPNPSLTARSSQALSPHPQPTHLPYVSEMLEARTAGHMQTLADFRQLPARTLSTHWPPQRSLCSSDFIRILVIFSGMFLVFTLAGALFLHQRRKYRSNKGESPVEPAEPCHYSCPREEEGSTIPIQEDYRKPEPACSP
# T2: Nectin-4蛋白 (Homo sapiens (Human), UniProt Q96NY8 32-510)
# T2 construct: also called PVRL4; CHO-K1-Nectin-4细胞
# T2 sequence: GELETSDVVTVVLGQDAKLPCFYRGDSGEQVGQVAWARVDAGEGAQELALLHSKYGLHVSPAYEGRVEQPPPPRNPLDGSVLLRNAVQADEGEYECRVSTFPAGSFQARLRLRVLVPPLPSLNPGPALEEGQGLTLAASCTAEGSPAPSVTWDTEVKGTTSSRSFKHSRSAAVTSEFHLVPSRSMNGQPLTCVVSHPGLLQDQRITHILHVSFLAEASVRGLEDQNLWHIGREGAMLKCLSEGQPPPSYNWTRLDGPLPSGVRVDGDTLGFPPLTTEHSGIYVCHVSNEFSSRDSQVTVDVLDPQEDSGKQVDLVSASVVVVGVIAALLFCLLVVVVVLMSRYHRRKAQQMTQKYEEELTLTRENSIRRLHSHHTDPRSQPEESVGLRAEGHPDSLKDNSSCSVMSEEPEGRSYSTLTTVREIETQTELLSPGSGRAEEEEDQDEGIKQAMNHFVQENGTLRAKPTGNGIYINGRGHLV
# How the values were obtained:
# CD27蛋白 = target: T1, CD27蛋白; assay: flow cytometry on CHO-K1-CD27 cells, antibody at 0.1-300 μg/mL, Alexa-647 anti-human Fc secondary antibody
# Nectin-4蛋白 = target: T2, Nectin-4蛋白; assay: flow cytometry on CHO-K1-Nectin-4 cells, antibody at 0.1-300 μg/mL, Alexa-647 anti-human Fc secondary antibody
binder,measurement,setting,value
"抗体CD27×Nectin-4 (bispecific antibody, human IgG1, kappa, L234A L235A, also called CD27×Nectin-4抗体; CD27×Nectin-4双特异抗体) scFv: not shown heavy: EVQLVESGGGLVQPGGSLRLSCAASGFTFSSYNMNWVRQAPGKGLEWVSYISSSSSTIYYADSVKGRFTISRDNAKNSLSLQMNSLRDEDTAVYYCARAYYYGMDVWGQGTTVTVSSASTKGPSVFPLAPSSKSTSGGTAALGCLVKDYFPEPVTVSWNSGALTSGVHTFPAVLQSSGLYSLSSVVTVPSSSLGTQTYICNVNHKPSNTKVDKKVEPKSCDKTHTCPPCPAPEAAGGPSVFLFPPKPKDTLMISRTPEVTCVVVDVSHEDPEVKFNWYVDGVEVHNAKTKPREEQYNSTYRVVSVLTVLHQDWLNGKEYKCKVSNKALPAPIEKTISKAKGQPREPQVCTLPPSREEMTKNQVSLSCAVKGFYPSDIAVEWESNGQPENNYKTTPPVLDSDGSFFLVSKLTVDKSRWQQGNVFSCSVMHEALHNHYTQKSLSLSPGK light: DIQMTQSPSSVSASVGDRVTITCRASQGISGWLAWYQQKPGKAPKFLIYAASTLQSGVPSRFSGSGSGTDFTLTISSLQPEDFATYYCQQANSFPPTFGGGTKVEIKRTVAAPSVFIFPPSDEQLKSGTASVVCLLNNFYPREAKVQWKVDNALQSGNSQESVTEQDSKDSTYSLSSTLTLSKADYEKHKVYACEVTHQGLSSPVTKSFNRGEC",binding result,CD27蛋白,binds
same,binding result,Nectin-4蛋白,binds
